From article PMC5206705 (Scientific Reports, 2017)

Molecular target: the molecule itself
Assay: SEC; preparative Superdex 200 in 50 mM Tris pH 8.0, 125 mM sodium chloride; elution at approximately 80 kDa against a 44 kDa monomer

B1: β-ketoacyl-acyl carrier protein synthase FabF from Listeria monocytogenes (enzyme, UniProt A0A0B8RFI6 1-413, looked up)
chain: MDKRRVVVTGIGAVTPIGNDAETSWENAKKGVNGVAKMTRLNPDDFPVKIAAELKDFDVEKYLEKKEARKMDRFTHYAIASAEMAVQDSGLVIDDSNANRVGVWIGSGIGGMETFETQYEIFLNRGHRRVSPFFVPMMIPDMGSGQVSIRFGAKGINSTTVTACATATNSIGDAFKVIERGDADAMITGGAEAPITKMSLAGFTANKALSLNPDPETACRPFDKDRDGFIIGEGAGIVILEEYEHAKARGAKIYAEIVGYGATGDAYHITAPAPNGEGAARAMKMAIDDAGLTPDKVDYINAHGTSTPYNDEYETQAIKTVFGDHAKKLAISSTKSMTGHTLGASGGIEAIFALLTIRDNIIAPTIHLKNQDEVCDLDYVPNEAREANVNVVISNSFGFGGHNATLVFKRIED
notes: FabF (β-ketoacyl-ACP synthase II) of Listeria monocytogenes, amplified from genomic DNA ATCC 19115D-5 with primers from the start to the stop codon; the construct encoded the full length protein; monomer about 44 kDa; Vector pMCSG21 with a TEV site; a few residues of the site may remain at the N-terminus after cleavage (surmise); also called LmFabF; β-ketoacyl-ACP synthase II; source: E. coli …
stoichiometry N: 2
